# According to patent US20260060994A1, “GLYCOSYLATED COMPOSITIONS AND METHODS OF USE” (Cy Biopharma AG, priority 2023, published 2026):
# Tests used:
# Assay type in all cases: biochemical
# [1] = Glycosylation of 4-HO-MET by GLY enzymes (UDP-glucose), LC-UV/MS; details: 0.5 mM 4-OH-MET, 1.25 mM UDP-glucose, 25% (v/v) GLY enzyme, 24 h at 30° C.; estimate from UV peak areas
# Procedure: 4-HO-MET was dissolved in 100% (v/v) DMSO to a concentration of 10 mM. The solution was stored at −20° C. prior to use.
# FastAP phosphatase (1 U/uL) from ThermoFisher Scientific (catalog no. EF0651).
# GLY enzyme suspensions contain 10 mM Tris-HCl at pH7.4, 250 mM imidazole and 50% (v/v) glycerol.
# (§1) The assay conditions were: • 100 mM Tris-HCl, pH 7.4 • 5 mM MgCl2 • 1 mM KCl • 1.25 mM UDP-glucose • 0.5 mM 4-OH-MET • 5% (v/v) DMSO • 0.1 U/uL Fast AP phosphatase • 25% (v/v) GLY enzyme
# (§2) Incubation was 24 house at 30° C. Reactions were terminated adding 3 volumes of 75% (v/v) ethanol.
# (§3) LC separation was performed using an Agligen 1290 Infinity II UHPLC equipped with a Phenomenex Kinetex XB-C18 column (1.7 um, 100 angstroms, 100×2.1 mm) and 4-HO-MET was detected by absorbance at 210 nm and 268 nm with an Agilent 1260 Infinity II DAD.
# (§4) 0.1% Formic acid in water (A) and 0.1% Formic acid in acetonitrile (B) were used as the mobile phases for the elution gradient, with a flow rate of 0.4 ml/min. Retention time for 4-HO-MET using this type of instrument under these condition was 2.6 min. The system was coupled to an Ultivo Triple Quadrupole MS. To verify the presence of possible glycoside products, as SIM (Selected Ion Monitoring) method was used on the MS to analyse for the m/z 381 (theoretical mass to chart ratio of 4-HO-MET-glucoside) and m/z 219 (theoretical mass to charge ratio of 4-HO-MET).
# As standard, 4-HO-MET solutions at a concentrations of 500, 250, 125, 62.5, and 31.25 uM were prepared from the 10 mM stock and used for caliboration.
# A representative example of the chromatograms obtained with a wavelength of 268 nm for the standard solutions resuspended in the reaction buffer, and the corresponding MS-SIM signal, is shown in FIG. 16. The peak corresponding to 4-HO-MET is indicated.
# When analyzing the GLY reactions, 30 of them gave an additional peak with retention time 2.2 min (i.e. in the expected region for a 4-HO-MET glucoside) and molecular mass compatible with the expected glucoside product, together with a corresponding decrease in substrate concentration, compared to the no-enzyme controls.
# The method was repeated using various GLY enzymes to produce 4-HO-MET glucosides.
# (§5) The enzymes giving the additional peak putatively corresponding to the 4-HO-MET-β-D-glucoside are listed below. […] A correct quantification of the product is not possible without a standard for the specific molecule. However, based on the assumption that the ratio area-to-concentration in the UV chromatograms will be similar to 4-HO-MET, estimates of the relative abundance for the additional peak are also given, expressed as percentage of converted 4-HO-MET. GLY enzymes hits are ranked according to their estimated conversion efficiency.
# [2] = Glycosylation of 4-OH-EPT by GLY enzymes (UDP-glucose), LC-UV/MS; details: conditions of Examples 1 and 2 repeated for 4-OH-EPT; estimate from UV peak areas
# Procedure: as §1, §2, §3, §4, §5
# The experiments described in Examples 1 and 2 above were repeated for 4-OH-EPT.
# Below is the corresponding data for 4-OH-EPT.
# [3] = Glycosylation of 4-OH-MiPT by GLY enzymes (UDP-glucose), LC-UV/MS; details: conditions of Examples 1 and 2 repeated for 4-OH-MiPT; estimate from UV peak areas
# Procedure: as §1, §2, §3, §4, §5
# (§6) The experiments described in Examples 1 and 2 above were repeated for 4-OH-MiPT, 4-HO-DMT and 5-HO-DMT
# Below is the corresponding data for 4-OH-MiPT.
# [4] = Glycosylation of 4-OH-DMT by GLY enzymes (UDP-glucose), LC-UV/MS; details: conditions of Examples 1 and 2 repeated for 4-HO-DMT; estimate from UV peak areas
# Procedure: as §1, §2, §3, §4, §5, §6
# Below is the corresponding data for 4-OH-DMT and 5-HO-DMT.
Molecule,4-OH-MET GLY % (percentage of converted 4-HO-MET) [1] [%],4-OH-EPT GLY % (percentage of converted 4-OH-EPT) [2] [%],4-OH-MiPT GLY % (percentage of converted 4-OH-MiPT) [3] [%],4-OH-DMT GLY % [4] [%]
"GLY77: glycosyltransferase (UGT), SEQ ID NO: 8 (protein) MSTSELVFIPSPGAGHLPPTVELAKLLLHRDQRLSVTIIVMNLWLGPKHNTEARPCVPSLRFVDIPCDESTMALISPNTFISAFVEHHKPRVRDIVRGIIESDSVRLAGFVLDMFCMPMSDVANEFGVPSYNYFTSGAATLGLMFHLQWKRDHEGYDATELKNSDTELSVPSYVNPVPAKVLPEVVLDKEGGSKMFLDLAERIRESKGIIVNSCQAIERHALEYLSSNNNGIPPVFPVGPILNLENKKDDAKTDEIMRWLNEQPESSVVFLCFGSMGSFNEKQVKEIAVAIERSGHRFLWSLRRPTPKEKIEFPKEYENLEEVLPEGFLKRTSSIGKVIGWAPQMAVLSHPSVGGFVSHCGWNSTLESMWCGVPMAAWPLYAEQTLNAFLLVVELGLAAEIRMDYRTDTKAGYDGGMEVTVEEIEDGIRKLMSDGEIRNKVKDVKEKSRAAVVEGGSSYASIGKFIEHVSNVTI",66.5,66.2,85,30.2
"GLY169: glycosyltransferase (UGT), SEQ ID NO: 26 (protein) MKKPELIFIPAPGVGHVISALEFAARLLGHDPRISITVLAIKAPFSSHLDAYTKSLVASQPRIALIDLPPVDPPPPELLRSVEHYVTVYIESYIPHVQRAVGEIQSSRSDSGSDRSVAGFVLDFFCTSMIDVADGFSLPSYIYLTSNAHFLDLMFHLPARHDQIGREARLSDPDLPLPNFANPVPVSVLPSAVLDGEAGGYAAYVKLARRFRDVRGIMVNTFMELERSALGSFSGGSWDGPAVYAVGPVIDPKGVPDPSLDRAHWEKIREWLDEQPPSSVVFLCFGSLGSFDADQVKEIASGIERSGHKFLWSLRPESSQSQLPVGFLERMRGRGIICGWTPQVEVLGHAAIGGFVSHCGWNSILESLWYGVPIVTWPIYAEQQLNAFTMVKELGLAVELRLDYKGQGIGGHLVPAEEIEKAVGRLMGDDAAETRKKVREMREAARNAVKEGGSSYDSIGRLIQDFINSIE",52.3,33,71.5,25.0
"GLY73: glycosyltransferase (UGT), SEQ ID NO: 4 (protein) MEDAIVLYPSPGRGHLISMVELGKLILKNHPSFSITILILSEPNTNANSTAPNYVASSTTEYITTVNSTTPSITFHHLPPISEVPPSTSSFVELSYLIPRFNNQNLHQILKTISQTSKLKAFIIDFFCDAAFEVATNLDIPTYYFFTSGACYLAALLYRPTLHKKVDKSLKDLGNTLLDIPGLPPIQASDLPEPWKDRTSKEYQYSLNVAAHMAKSNGLLVNTFDLLETKAIKAISGGLCVPDRTTPPIFCIGPLISDSNQDVEDHECLNWLNSQPSRSVVFLCFGSLGLFSAKQLKEIAVGLENSGQRFLWVLRNPPSDNDKDPNLDELLPKGFLERTKEKGFVVKQWAPQVAVLRHDSVGGFVTHCGWNSVLEAVWCRVPMVGWPLYAEQRLNSVVLVEEIKLASGLNESEDGLVSAAELEKRVKELMDSEVGTEVRERVSGLRDEAVTAVKEGGSSHVALAKLAELWRQN",7.4,–,–,14.0
"GLY164: glycosyltransferase (UGT), SEQ ID NO: 24 (protein) MKEKAELVFIPSPSVGHLVSVIVFAKRLLLLDRDNAAGSNNSFSITVLVMQEHTATASDNDAHIKSLAGAGATADVSIRFIGVPKMNPPPLDYFKSPEKFITEYVDSHKDCIKEAIIEHVLNNNVKIAGLVLDFFCSSMIDTANELGVPSYVFFTSGAAFLGFVLHLPTRGGEEFEESEADSADIFTYANPVPYRVLPSLCFNKHGGFSAFENFGRRFKETKGIIVNTFEELESHAVEYLMKCDGVPPVYNVGPMIDLHGDIHARPRGGGTQRDEIIRWLDDQPASSVVFLCFGSMGSFGEEQIKEVASGLGKSGVRFLWSLRKTPPKDRPEMPGEYTCVEDILPRGFQERSKGRGMICGWAPQKEVLAHSAIGGFVSHCGWNSILESVWFGVPIVTWPIYAEQQINAFQMVRDLGLAVELRLDYRRGTENHVMADELARAVGCVMDGDSEVRKRVKEVSEKARLALRDGGSSYAATGRLIEDLFGSVS",10.2,–,–,–
"GLY119: glycosyltransferase (UGT), SEQ ID NO: 16 (protein) MGSLGHQLHIFFLPFFAHGHMIPSVDMAKLFASRGIKTTIITTPLNAPFFSKTIQKTKELGFDINILTIKFPAAEAGLPEGYENTDAFIFSENAREMTIKFIKATTFLQAPFEKVLQECHPDCIVADVFFPWATDAAAKFGIPRLVFHGTSNFALSASECVRLYEPHKKVSSDSEPFVVPDLPGDIKLTKKQLPDDVRENVENDFSKFLKASKEAELRSFGVVVNSFYELEPAYADYYKKVLGRRAWNVGPVSLCNRDTEDKAGRGKETSIDHHECLKWLDSKKPNSVVYICFGSTTNFSDSQLKEIAAGLEASGQQFIWVVRRNKKGQEDKEDWLPEGFEERMEGVGLIIRGWAPQVLILDHEAIGAFVTHCGWNSTLEGITAGKPMVTWPIFAEQFYNEKLVTDVLKTGVGVGVKEWFRVHGDHVKSEAVEKTITQIMVGEEAEEMRSRAKKLGETARKAVEEGGSSYSDFNALIEELRWRRP",6,–,–,–
"GLY146: glycosyltransferase (UGT), SEQ ID NO: 18 (protein) MKKSELVFIPAPGIGHLVSALEFAKRLIDHDDRHSITVLSMKFPFTPFADEFTKSLVASHHGIQVIDLPPVDPPPPELLNSPENFVCAFIESLIPHVRNTLTDMLSSSSRVSGLVLDFFCLSLIDVGNELGVPSYMFLTSNSGFLGLMLHIPIRHNQKSAEFEESDAEVSLPGFWNPVPVSVLPGAVFDKDGGYSAYLKLAKRFRDTKGIIVNTFSELELDSVKSLSDGETPPVYMVGPVIDLKGQPNPSLDQAQREKIMHWLDDQPESSVVYLCFGSMGTFGAIQLREIATGLERSGHRFLWSMRVPQPAKGPDDILPEGFSERIGGRGLICGWAPQMEVLAHKAIKGFVSHCGWNSILESLWFGVPIATWPIYAEQQMNAFRMVKEFGLAVEMKLDYRLGDLVMADEIEIAVRRLMDDSDELRKKVKEMGEMARQAIIEGGSSYIAVGQLIEDILGSISCDN",–,5.3,23.2,–
"GLY108: glycosyltransferase (UGT), SEQ ID NO: 14 (protein) MGSQQEHIVMLPFMAQGHIIPFLALAKQIQQRTGFTITIANTPLNIQYLRTTISTSDDSSRPCIRLAELPFCSSDHGLPPNTENTEALSFHQIVDLFHASKTLQAPFHSLVSGIIEKEGRPPLCIISDVFFGWATEVAKSLGTSNVTFTTGGGYGTAAYISLWQNLPHRATDSDYFALPGFPDSCRFHITQLHQYLRAADGTDAWSRYFQPQIALSLDSSGWLCNTAEEIEPHGLEILRNYVKPPVWTIGPLLPPALLNHSLSSGSSIFGQRAWKVSGVSPEKCLDWLDKHPQSSVLYISFGSQNTISPSQMMELALGLEDSGKPFIWVIRPPVGFDIEGEFRAEWLPQNFEQRMAESNQGLIVHKWAPQLEILSHKSTGVFLSHCGWNSVMESLCVGVPIIGWPLAAEQCYNSKMLTEDMGVAVELTRGRQGALERKEVKRVIELVMDSKGKGEEMKKKATEIGEKIRDAMREGGSSLKAMDDFVSTMLSKRQGY",8.7,–,–,–
